Data: PMC7249126

Tests used:
[1] = biological target: recombinant CD81 large extracellular loop (CD81-LEL); assay: peptide or protein array; direct analysis on a 3-D biochip: CD81-LEL covalently immobilised in spots (300 pg/spot) on macroporous P(GMA-co-DEGDMA), blocked with BSA; E2-GFP or VMPs in solution, 0.01 M PBS pH 7.4 (VMPs also in spiked human blood plasma), 2 h, 37 °C; GFP fluorescence read; apparent dissociation constants from adsorption isotherms linearised in double reciprocal coordinates
[2] = biological target: recombinant CD81 large extracellular loop (CD81-LEL); assay: peptide or protein array; sandwich analysis on a 3-D biochip: CD81-LEL immobilised (300 pg/spot); E2-GFP or VMPs at 1500 ng/mL, 2 h, 37 °C; then Cy3-labelled polyclonal anti-E2 antibodies (1000 ng/mL, 3 h) for detection; 0.01 M PBS pH 7.4 or spiked human blood plasma

| Substance | Kd [1] | decrease in relative signal intensity against free E2 [2] | decrease in relative signal intensity against free E2 [1] |
| --- | --- | --- | --- |
| chimeric protein E2-superfolder GFP (HCV E2 core, 412-645 aa) (domain or fragment) | 11.6 nM | – | – |
| hepatitis C virus-mimetic particles (HC VMPs): PLA-b-PEG nanoparticles bearing E2-GFP on their surface | 26.3 nM | 45 to 48% | 40% |
